Experimental data published in the supplement of paper PMC12042874.
± gives the uncertainty stated by the source.

Assay: amyloid nucleation score (Sup35N fusion, yeast selection) (log enrichment); library NNK3; higher = more nucleation; inactive = no reads after selection
How it was run: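 For the nucleation score, DiMSum gave the log enrichment of output over input reads, centred on the mode score of non-aggregating sequences. Psi-negative yeast expressing Sup35N fused to peptides of 20 random codons were induced with 100 μM copper sulfate for 24 hours and grown 7 days at 30°C on medium lacking adenine and uracil. Input and output plasmid inserts were Illumina-sequenced, and sequences with under 100 input reads were excluded.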

Row | Substance | amyloid nucleation score
1 | RDPDGRIYMYGLDVIQYVTN | inactive
2 | LKGKP | inactive
3 | CGGLHQHNLMRRCRWMKPGE | inactive
4 | SSTHIWGVQALGS | inactive
5 | AKTSYQRN | inactive
6 | IDRSLLSGFSNLHICSICCT | 1.2 ± 0.12
7 | WFDFHA | 0.9 ± 0.25
8 | AGRDIIMYNRAWFNISAA | inactive
9 | DKTCMVKPT | inactive
10 | NSVVF | inactive
11 | HLSPVNSK | inactive
12 | FVYQYYV | inactive
13 | DTYRV | inactive
14 | FIILQFVGFLHNTGFWYQLG | 0.217 ± 0.25
15 | TLLSFAHYHHLWSHLVYRSV | inactive
16 | LYVDCGLRIWRNMSAIVGCV | inactive
17 | NHLMTFLVWWLMIALLPHLD | inactive
18 | KSFSR | inactive
19 | GWSDRFSMLYSFLLLLWKSP | inactive
20 | ICLCLHCIYSRSITSAVLSA | inactive
21 | ELVGQF | inactive
22 | GSATVMIWQR | inactive
23 | YTFIIGIKHSTSSFNMSFSM | 0.613 ± 0.25

Row | Substance | amyloid nucleation score
24 | LSIVRAGVRSGNRGELFRCR | inactive
25 | MRLVICTAHWQSFYRFYIIL | inactive
26 | LLRIPGF | inactive
27 | AILLWNCLHSSVSLLKKAYS | -0.518 ± 1.4
28 | PHGNVLVLYDKRVLSCVEWN | 0.428 ± 0.46
29 | YTFLSVAFLD | inactive
30 | FVVSLQYMCQSRYISPCTPI | inactive
31 | QWWITTYFGLIFLYVFYSID | inactive
32 | GMYGMSGMV | inactive
33 | MTSIQEF | inactive
34 | SMNNWGFDNICSQVCPLAAM | inactive
35 | VFVTRYKTKTPCLMTVRKEL | inactive
36 | TNTNTCL | inactive
37 | NCCPIIPVDYNYNRLPIIVG | inactive
38 | PRFMKVRRWYSNLM | inactive
39 | DRCCLLHYT | inactive
40 | LMLDFSIGRSPGDNAVICRH | inactive
41 | GSASHDPTACCFYGFV | inactive
42 | VDIVRVSCEALSLATDCQFL | inactive
43 | PRISQEDVFARTARVDLGLQ | inactive
44 | LFYAVSFQRYQANVFVVRGD | inactive
45 | PRSVLINLLHRTHVCCRLFS | inactive
46 | LACLILS | inactive

Row | Substance | amyloid nucleation score
47 | VCLCNIRDMAG | inactive
48 | PMKFQVFGVSQGVR | inactive
49 | QRVLY | 0.864 ± 0.15
50 | WFLVVVTFGWSIGQGQVGA | -0.527 ± 1.1
51 | GVGVMLSYKGIFMHLSFVGE | inactive
52 | SSYLMFDMLMRYYLNYFMCR | inactive
53 | TLFNLFRVKLIDEPNLAKWL | inactive
54 | IFSFTLSLSFGVFLNMFSVD | inactive
55 | TNLWFKNLSMFMGIVSLART | inactive
56 | LCHVVSDMVLSIQHYHACLS | inactive
57 | KARANFVYAKFHFTRAP | inactive
58 | LHHMHYSLKGS | inactive
59 | RYMHGYCILET | inactive
60 | LTLLHRKRMVLRYCNFMLYL | inactive
61 | FKQIVKTSFNLCFFIRCKRT | inactive
62 | VMIKSC | inactive
63 | NNLTKM | inactive
64 | RGQFYLLVARLNSKM | inactive
65 | DGRSFAVDAIVYCHLYR | 0.758 ± 0.11
66 | CDEVLTDKLVWGREFILWSD | inactive
67 | QVDHNWF | inactive
68 | ILSRRLRLQLLFDFYNCLCG | inactive
69 | VSLQLLWNPMLSYFTFQVGR | 1.16 ± 0.19

Row | Substance | amyloid nucleation score
70 | LRVPSPYIFYKSKGHNIGSL | inactive
71 | QFIDRNVWLISSGFRTRFDI | inactive
72 | SFLIDPTHGLYSLRFFIFCW | inactive
73 | RMSVSSFRVVWSTIAYTKST | inactive
74 | YKVGRSHCGKKSEDLP | inactive
75 | DFNSVVLPNGV | inactive
76 | GPIEPFSMLSM | -0.291 ± 0.7
77 | LTSCTATLCICCSRVVTVEI | 1.24 ± 0.082
78 | VASSKQYLGTVTYLDGVA | inactive
79 | WSGHIGVLRTTSSQQWRVRR | inactive
80 | KNTGMGDTVSFRLVSAFEHI | inactive
81 | GAYVKPNEWCEGFENSSFEV | inactive
82 | SFNVDAYMNINCW | 1.02 ± 0.21
83 | YNPIGFRRLFTPTCLFITKL | inactive
84 | PGKGKELSRASGSRATV | inactive
85 | KSNFGLVSSPMVFSYCSYTN | 0.364 ± 0.35
86 | SMFYMRFHVQ | inactive
87 | YTMLSVCGVYICYKVYSMCW | 0.527 ± 0.4
88 | RRSRFTFSYIIRSLCASRTF | inactive
89 | CPGVHWHDVK | inactive
90 | SMKFC | inactive
91 | NWDMAFNYNLTAFSPKGTNS | inactive
92 | PRFYANRFTVLFLYNLDI | -0.227 ± 1.1

Row | Substance | amyloid nucleation score
93 | PNHELYM | inactive
94 | GTIHFHGGNHCSLGLL | inactive
95 | RAPRVVIGCSMYMGMFSELE | 0.772 ± 0.14
96 | DVEFI | inactive
97 | LNLQPRVDVVLVLFRTRANK | 0.767 ± 0.25
98 | MSGLENVACDYKRELAMKRS | inactive
99 | ETAYSASVRDT | inactive
100 | EVPTRLDKMNENCNREDSAP | inactive
101 | RSDSWLIYSSPINMM | inactive
102 | QKNFLGNF | inactive
103 | IIKWSCYNLSLYHTKCKDAE | inactive
104 | GASMLGAIKGYSTSERISLD | 0.175 ± 0.45
105 | NYHTFSYCI | inactive
106 | LQYFTYLGQCLKRETHHFLR | inactive
107 | IWTLS | inactive
108 | EQIGGI | inactive
109 | LNLYRLPLTPSLSASRMIAY | inactive
110 | RGNATGSIKD | inactive
111 | KLQEDKLGPSKNKPSVHLCF | inactive
112 | TYTFLSPVIDYKLYVYQCRT | 1.72 ± 0.067
113 | HGERSDKMLDSGSPYMAPSG | inactive
114 | NFVRGTGFVGRLESLNWKV | inactive
115 | RLNTMCYSSALASS | inactive

Row | Substance | amyloid nucleation score
116 | TRSVFIHVYW | 0.095 ± 0.5
117 | RVKSKDANSGGSMVCASRVL | inactive
118 | KVLSYRETVPRLICLIHSRP | inactive
119 | LVCGPI | inactive
120 | NATIFFMQ | 0.605 ± 0.24
121 | NWRQNEPYSPGSKSLGWHSF | inactive
122 | VDVCITFCWIARLMV | inactive
123 | FYLFIVVRMVVLVTDVIVVG | inactive
124 | PFNRVVVHSDAARGCRPCRP | inactive
125 | GRLSVFLGYIHGRCYGALGR | -0.635 ± 1.9
126 | ENAYLRSCRVVVKESSNVVV | -0.906 ± 1.4
127 | TRRGSDLPSVLAMFLSKSTR | inactive
128 | SFVPDLRARVMSCSGCSTLG | inactive
129 | LWFMDFMQSSNSEYQPIVGL | inactive
130 | IWVWVWSYWGRNFLSLVRFV | inactive
131 | QFSSS | -1.13 ± 1.3
132 | DPRRGIPIKPQMINTVQM | inactive
133 | RSTDTFWACCSDKTLSLWSA | inactive
134 | REASVECH | inactive
135 | VTHCSVFHLGNTWLVQLWWY | -0.513 ± 1.3
136 | VLANGKTSELRELKVHLLAG | -0.274 ± 1.1
137 | GCKWWYSVFREWKSPLSGGV | inactive
138 | THDAVNFVLRHWAITGNTDM | inactive

Row | Substance | amyloid nucleation score
139 | SFSFSKSNVSERDLCSTCTV | inactive
140 | KDNTYVIFFYYLFVFVRTFL | inactive
141 | RRGNDRKRLWAVNLDTGNFL | inactive
142 | CELGNIVHS | inactive
143 | PRSCN | inactive
144 | SCGTMTEIGVGRVLRFFVIL | inactive
145 | RTMLTQFPCYWVSIHSVLVS | inactive
146 | GLFCLKFKPTQGVPRQKLL | inactive
147 | NSVIGVFQLESSRRGLWDFI | 1.52 ± 0.11
148 | PATLQSPISSK | inactive
149 | VRQWSTFASLMYATENGVNN | inactive
150 | NSVPRGMAFFLNAFFSLIYY | inactive
151 | NKWLDRNKG | inactive
152 | CSIARLFWFFPVMPSCIG | -0.236 ± 1.1
153 | ALASGVVVKLDICIVNNRMY | 3.11 ± 0.073
154 | DRVSANLTFLSS | inactive
155 | SGISCGLGLATGRKYGSGAV | inactive
156 | FLCSTSLFVLVLMLTLTNTP | inactive
157 | VARPCFRERNHSPI | inactive
158 | GVRHRLAVFQYMFTHVLWTM | inactive
159 | HSTTSLWSVVSVQSKTFMLK | inactive
160 | KFVFSFGSLYSVLTLERVEG | 0.388 ± 0.2
161 | GKKDRVRQTYFYMNSYIHW | 1.65 ± 0.085
